Reference: paper PMC4503813, “The molecular and structural bases for the association of complement C3 mutations with atypical hemolytic uremic syndrome” (Molecular Immunology, 2015)

What was measured:
C3b_(R592W) (human) [1] = target: C3b_(R592W) (human) (UniProt P01024)
C3b_(R161W) (human) [2] = target: C3b_(R161W) (human) (UniProt P01024)
wild-type C3b (human) [3] = target: wild-type C3b (human) (UniProt P01024); assay: SPR; Biacore T100, CM5 chip; C3b surface brought to 1500 RU by thioester deposition (FB and FD with Mg2+ to form convertase, then mutant or wt C3 as substrate); sMCP 0.078-5 μM flowed 90 s, 300 s dissociation; 25 °C, 20 μl/min, HBS-EP; steady-state affinity analysis
C3b_(R592W) (human) [4] = target: C3b_(R592W) (human) (UniProt P01024); assay: as above
C3b_(R161W) (human) [5] = target: C3b_(R161W) (human) (UniProt P01024); assay: as above
C3b_(I1157T) [6] = target: C3b_(I1157T) (human, UniProt P01024 749-1663; P01024 749-1663, I1157T, C3b state: beta and alpha' chains disulfide-linked. Thioester (Cys1010-Gln1013) opened: hydrolysed in trypsin-generated C3b, or covalently attached to the chip via thioester for MCP SPR. Plasma glycop); assay: SPR; Biacore T100, CM5 chip; C3b immobilised (400 RU, amine coupling); FH 0.07-4.18 μM flowed 180 s, 300 s dissociation; 25 °C, 20 μl/min, HBS-EP; steady-state affinity analysis; details: both partners purified
C3b_(I1157T) (human, UniProt P01024 749-1663; P01024 749-1663, I1157T, C3b state: beta and alpha' chains disulfide-linked. Thioester (Cys1010-Gln1013) opened: hydrolysed in trypsin-generated C3b, or covalently attached to the chip via thioester for MCP SPR. Plasma glycop), sequence (P01024 749-1663, stated change not applied, chain 1 of 2): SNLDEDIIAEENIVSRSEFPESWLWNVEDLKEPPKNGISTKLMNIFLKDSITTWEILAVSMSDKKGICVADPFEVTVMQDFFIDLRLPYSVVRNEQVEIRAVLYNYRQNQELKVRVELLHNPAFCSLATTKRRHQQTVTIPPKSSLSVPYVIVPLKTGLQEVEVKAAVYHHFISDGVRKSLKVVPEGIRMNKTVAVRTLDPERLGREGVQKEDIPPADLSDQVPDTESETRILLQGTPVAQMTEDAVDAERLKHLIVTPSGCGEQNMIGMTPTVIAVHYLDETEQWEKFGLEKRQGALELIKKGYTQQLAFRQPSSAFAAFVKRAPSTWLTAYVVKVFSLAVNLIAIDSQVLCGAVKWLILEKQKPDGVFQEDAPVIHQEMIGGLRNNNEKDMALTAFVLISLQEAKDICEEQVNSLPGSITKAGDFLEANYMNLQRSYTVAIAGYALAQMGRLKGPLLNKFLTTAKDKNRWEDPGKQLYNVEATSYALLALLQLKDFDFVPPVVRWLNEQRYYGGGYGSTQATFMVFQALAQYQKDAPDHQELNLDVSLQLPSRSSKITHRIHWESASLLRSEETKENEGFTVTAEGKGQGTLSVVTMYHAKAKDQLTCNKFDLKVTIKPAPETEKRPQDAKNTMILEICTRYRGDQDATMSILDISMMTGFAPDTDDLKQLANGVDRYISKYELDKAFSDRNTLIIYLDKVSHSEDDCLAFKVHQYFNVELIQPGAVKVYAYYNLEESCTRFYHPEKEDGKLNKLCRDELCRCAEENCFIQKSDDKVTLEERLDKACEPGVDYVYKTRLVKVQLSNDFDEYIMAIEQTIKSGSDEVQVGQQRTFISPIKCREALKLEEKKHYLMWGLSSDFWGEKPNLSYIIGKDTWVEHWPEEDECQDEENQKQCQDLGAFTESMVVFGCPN
C3b_(I1157T) (human, UniProt P01024 749-1663; P01024 749-1663, I1157T, C3b state: beta and alpha' chains disulfide-linked. Thioester (Cys1010-Gln1013) opened: hydrolysed in trypsin-generated C3b, or covalently attached to the chip via thioester for MCP SPR. Plasma glycop), sequence (P01024 749-1663 I1157T, chain 2 of 2): as the sequence (P01024 749-1663, stated change not applied, chain 1 of 2) above, with I409T counted along it

wild-type C3b (human) [7] = target: wild-type C3b (human) (UniProt P01024); assay: as above
C3b_(R592W) (human) [8] = target: C3b_(R592W) (human) (UniProt P01024); assay: as above
C3b_(R161W) (human) [9] = target: C3b_(R161W) (human) (UniProt P01024); assay: as above
C3b_(I1157T) [10] = target: C3b_(I1157T) (human, UniProt P01024 749-1663; P01024 749-1663, I1157T); assay: SPR; Biacore T100, CM5 chip; C3b surface brought to 1500 RU by thioester deposition (FB and FD with Mg2+ to form convertase, then mutant or wt C3 as substrate); sMCP 0.078-5 μM flowed 90 s, 300 s dissociation; 25 °C, 20 μl/min, HBS-EP; steady-state affinity analysis; details: both partners purified
C3b_(I1157T) (human, UniProt P01024 749-1663; P01024 749-1663, I1157T), sequence (P01024 749-1663, stated change not applied, chain 1 of 2): as the sequence (P01024 749-1663, stated change not applied, chain 1 of 2) above
C3b_(I1157T) (human, UniProt P01024 749-1663; P01024 749-1663, I1157T), sequence (P01024 749-1663 I1157T, chain 2 of 2): as the sequence (P01024 749-1663, stated change not applied, chain 1 of 2) above, with I409T counted along it

In the case of “soluble recombinant membrane cofactor protein (sMCP) (from UniProt P15529 35-286) (domain or fragment)”, the FI-mediated cleavage of C3b with sMCP as cofactor, purified proteins in solution, 0-10 min at 37 °C; percent of C3b cleaved after 10 min (wt almost completely cleaved) (C3b_(R592W) (human) [1]) is reported as 70%, the FI-mediated cleavage of C3b with sMCP as cofactor, purified proteins in solution, 0-10 min at 37 °C; percent of C3b cleaved after 10 min (wt almost completely cleaved) (C3b_(R161W) (human) [2]) is reported as 70% and the Kd (wild-type C3b (human) [3]) is reported as 570 nM. The Kd (C3b_(R592W) (human) [4]) was 710 nM and the Kd (C3b_(R161W) (human) [5]) was 930 nM.

B1: factor H (natural protein, human, UniProt P08603 19-1231, looked up)
chain: EDCNELPPRRNTEILTGSWSDQTYPEGTQAIYKCRPGYRSLGNVIMVCRKGEWVALNPLRKCQKRPCGHPGDTPFGTFTLTGGNVFEYGVKAVYTCNEGYQLLGEINYRECDTDGWTNDIPICEVVKCLPVTAPENGKIVSSAMEPDREYHFGQAVRFVCNSGYKIEGDEEMHCSDDGFWSKEKPKCVEISCKSPDVINGSPISQKIIYKENERFQYKCNMGYEYSERGDAVCTESGWRPLPSCEEKSCDNPYIPNGDYSPLRIKHRTGDEITYQCRNGFYPATRGNTAKCTSTGWIPAPRCTLKPCDYPDIKHGGLYHENMRRPYFPVAVGKYYSYYCDEHFETPSGSYWDHIHCTQDGWSPAVPCLRKCYFPYLENGYNQNYGRKFVQGKSIDVACHPGYALPKAQTTVTCMENGWSPTPRCIRVKTCSKSSIDIENGFISESQYTYALKEKAKYQCKLGYVTADGETSGSITCGKDGWSAQPTCIKSCDIPVFMNARTKNDFTWFKLNDTLDYECHDGYESNTGSTTGSIVCGYNGWSDLPICYERECELPKIDVHLVPDRKKDQYKVGEVLKFSCKPGFTIVGPNSVQCYHFGLSPDLPICKEQVQSCGPPPELLNGNVKEKTKEEYGHSEVVEYYCNPRFLMKGPNKIQCVDGEWTTLPVCIVEESTCGDIPELEHGWAQLSSPPYYYGDSVEFNCSESFTMIGHRSITCIHGVWTQLPQCVAIDKLKKCKSSNLIILEEHLKNKKEFDHNSNIRYRCRGKEGWIHTVCINGRWDPEVNCSMAQIQLCPPPPQIPNSHNMTTTLNYRDGEKVSVLCQENYLIQEGEEITCKDGRWQSIPLCVEKIPCSQPPQIEHGTINSSRSSQESYAHGTKLSYTCEGGFRISEENETTCYMGKWSSPPQCEGLPCKSPPEISHGVVAHMSDSYQYGEEVTYKCFEGFGIDGPAIAKCLGEKWSHPPSCIKTDCLSLPSFENAIPMGEKKDVYKAGEQVTYTCATYYKMDGASNVTCINSRWTGRPTCRDTSCVNPPTVQNAYIVSRQMSKYPSGERVRYQCRSPYEMFGDEEVMCLNGNWTEPPQCKDSTGKCGPPPPIDNGDITSFPLSVYAPASSVEYQCQNLYQLEGNKRITCRNGQWSEPPKCLHPCVISREIMENYNIALRWTAKQKLYSRTGESVEFVCKRGYRLSSRSHTLRTTCWDGKLEYPTCAKR
notes: complement factor H, human, from plasma; also called FH; CFH
In the case of B1, the Kd (C3b_(I1157T) [6]) is reported as 1420 nM, the Kd (wild-type C3b (human) [7]) is reported as 960 nM and the Kd (C3b_(R592W) (human) [8]) is reported as 2450 nM. It also gave a Kd (C3b_(R161W) (human) [9]) of 2390 nM.

B2: soluble recombinant membrane cofactor protein (sMCP) (domain or fragment)
chain: CEEPPTFEAMELIGKPKPYYEIGERVDYKCKKGYFYIPPLATHTICDRNHTWLPVSDDACYRETCPYIRDPLNGQAVPANGTYEFGYQMHFICNEGYYLIGEEILYCELKGSVAIWSGKPPICEKVLCTPPPKIKNGKHTFSEVEVFEYLDAVTYSCDPAPGPDPFSLIGESTIYCGDNSVWSRAAPECKVVKCRFPVVENGKQISGFGKKFYYKATVMFECDKGFYLDGSDTIVCDSNSTWDPPVPKCLKV
notes: membrane cofactor protein (MCP, CD46), the first four short consensus repeats (SCR1-4); also called CD46; recombinant soluble MCP; source: recombinant; gift from Prof; Susan Lea, Oxford University
Work on B2 yielded a Kd (C3b_(I1157T) [10]) of 940 nM.
